Assays:
human CD3 protein = human CD3 protein (human); assay: ELISA, human CD3 protein coated, anti-human IgG1 Fc-HRP detection
Method: (§1) ELISA: The binding and specificity of VH, VH-Fc, and DbTE to uPAR or CD3 were analyzed by ELISA. uPAR-His protein or CD3 protein was coated at 50 ng/well at 4° C. overnight, then blocked with 5% milk for 1 hours at 37° C. After washing 3 times by 0.05% PBST, 3-fold serially diluted VH and VH-Fc binders were incubated on the plate for 1 hour at 37° C. The binding of VH candidates was detected by anti-FLAG M2-peroxidase (HRP) antibody (Sigma-Aldrich) while VH-Fc or DbTE binding was detected by HRP conjugated goat anti-human IgG1 Fc (Sigma-Aldrich) at 1:1000 dilution. The plates were washed 3 times by 0.05% PBST between each reagent's incubation. Binding activity was detected using 3,3′,5,5′-tetramethylbenzidine (Sigma-Aldrich) and was stopped by TMB stop buffer (ScyTek Laboratories). Absorbance was read at 450 nm.

[1] = target: T1, Human uPAR-His recombinant protein (human, UniProt Q03405 23-303); assay: ELISA, recombinant human uPAR coated, anti-human IgG1 Fc-HRP detection
T1 construct: Bought protein; also called recombinant human uPAR; recombinant human uPAR protein; not shown: His tag

recombinant uPAR-Biotin = target: T2, recombinant uPAR-Biotin (human, UniProt Q03405 23-303, limits assumed, biotin, site not stated); assay: BLItz, uPAR-Biotin on streptavidin biosensor
T2 construct: also called human uPAR (BLItz)

[2] = target: T1, Human uPAR-His recombinant protein; assay: ELISA, uPAR-His coated, anti-FLAG-HRP detection
Method: as §1

Binder	EC50 (human CD3 protein) [nM]	EC50 [1] [nM]	Kd (recombinant uPAR-Biotin) [nM]	koff (recombinant uPAR-Biotin) [s⁻¹]	kon (recombinant uPAR-Biotin) [M⁻¹ s⁻¹]	EC50 [2] [nM]
DbTE 3 (bispecific antibody, human IgG1, Single chain: VH 3, linker, humanized OKT3 scFv (VH-(G4S)6-VL), human IgG1 Fc with LALAPG mutations, His tag; also called anti-uPAR DbTE 3; domain-based bispecific T cell engager 3) EVQLVESGGGLVQPGGSLRLSCAASGFTFSRYWMSWVRQAPGKALEWIGEINHSGSTNYNPSLKSLVTISRDNSKNTLYLQMNSLRAEDTATYYCARSLVPALSYYYYYGMDVWGQGTTVTVSSGSGSSGSGSSGSGSSQVQLVQSGGGVVQPGRSLRLSCKASGYTFTRYTMHWVRQAPGKGLEWIGYINPSRGYTNYNQKVKDRFTISRDNSKNTAFLQMDSLRPEDTGVYFCARYYDDHYCLDYWGQGTPVTVSSGGGGSGGGGSGGGGSGGGGSGGGGSGGGGSDIQMTQSPSSLSASVGDRVTITCSASSSVSYMNWYQQTPGKAPKRWIYDTSKLASGVPSRFSGSGSGTDYTFTISSLQPEDIATYYCQQWSSNPFTFGQGTKLQITRGSGSSGDKTHTCPPCPAPEAAGGPSVFLFPPKPKDTLMISRTPEVTCVVVDVSHEDPEVKFNWYVDGVEVHNAKTKPREEQYNSTYRVVSVLTVLHQDWLNGKEYKCKVSNKALGAPIEKTISKAKGQPREPQVYTLPPSRDELTKNQVSLTCLVKGFYPSDIAVEWESNGQPENNYKTTPPVLDSDGSFFLYSKLTVDKSRWQQGNVFSCSVMHEALHNHYTQKSLSLSPGKGSHHHHHH	28.8	7.7	6.6	0.00072	110000	–
VH 3 (VHH, Fully human single VH domain from a phage library, expressed in E. coli; It was purified on Ni-NTA and detected with anti-FLAG, so a His tag and a FLAG tag are implied; also called clone 3; anti-uPAR VH 3) VHH: EVQLVESGGGLVQPGGSLRLSCAASGFTFSRYWMSWVRQAPGKALEWIGEINHSGSTNYNPSLKSLVTISRDNSKNTLYLQMNSLRAEDTATYYCARSLVPALSYYYYYGMDVWGQGTTVTVSS	–	–	17.1	0.0014	79000	12.1
DbTE 115 (bispecific antibody, human IgG1) EVQLVESGGGLVQPGGSLRLSCKGSGFTFGDYAIGWVRQAPGQRLEWIGWINTNSGSPKYAQGFTGRFTISRDNSKNTLYLQMNSLRAEDTAVYYCATDVVVPWGQGSQVTVSSGSGSSGSGSSGSGSSQVQLVQSGGGVVQPGRSLRLSCKASGYTFTRYTMHWVRQAPGKGLEWIGYINPSRGYTNYNQKVKDRFTISRDNSKNTAFLQMDSLRPEDTGVYFCARYYDDHYCLDYWGQGTPVTVSSGGGGSGGGGSGGGGSGGGGSGGGGSGGGGSDIQMTQSPSSLSASVGDRVTITCSASSSVSYMNWYQQTPGKAPKRWIYDTSKLASGVPSRFSGSGSGTDYTFTISSLQPEDIATYYCQQWSSNPFTFGQGTKLQITRGSGSSGDKTHTCPPCPAPEAAGGPSVFLFPPKPKDTLMISRTPEVTCVVVDVSHEDPEVKFNWYVDGVEVHNAKTKPREEQYNSTYRVVSVLTVLHQDWLNGKEYKCKVSNKALGAPIEKTISKAKGQPREPQVYTLPPSRDELTKNQVSLTCLVKGFYPSDIAVEWESNGQPENNYKTTPPVLDSDGSFFLYSKLTVDKSRWQQGNVFSCSVMHEALHNHYTQKSLSLSPGKGSHHHHHH	8.7	28	1.2	4.2e-05	36000	–
VH 115 (VHH, Fully human single VH domain from a phage library, expressed in E. coli; It was purified on Ni-NTA and detected with anti-FLAG, so a His tag and a FLAG tag are implied) VHH: EVQLVESGGGLVQPGGSLRLSCKGSGFTFGDYAIGWVRQAPGQRLEWIGWINTNSGSPKYAQGFTGRFTISRDNSKNTLYLQMNSLRAEDTAVYYCATDVVVPWGQGSQVTVSS	–	–	1.7	3.6e-05	21000	34.2

From patent publication US20240417485A1 (UNIVERSITY OF PITTSBURGH OF THE COMMONWEALTH SYSTEM OF …, published 2024)
